In patent US20110190218A1 (KARLSRUHE INSTITUTE OF TECHNOLOGY, published 2011):

Target: GST-Bag-1L-(202-345) (human, UniProt P08515 1-218 = GST; Q99933 202-345)
Test: GST pull-down from lysates of Bag-1L-transfected cells, immunoblot with Bag-1L specific antibody

B1: Bag-1L (in lysates from Bag-1L-transfected cells) (other)
chain: MAQRGGARRPRGDRERLGSRLRALRPGREPRQSEPPAQRGPPPSGRPPARSTASGHDRPTRGAAAGARRPRMKKKTRRRSTRSEELTRSEELTLSEEATWSEEATQSEEATQGEEMNRSQEVTRDEESTRSEEVTREEMAAAGLTVTVTHSNEKHDLHVTSQQGSSEPVVQDLAQVVEEVIGVPQSFQKLIFKGKSLKEMETPLSALGIQDGCRVMLIGKKNSPQEEVELKKLKHLEKSVEKIADQLEELNKELTGIQQGFLPKDLQAEALCKLDRRVKATIEQFMKILEEIDTLILPENFKDSRLKRKGLVKKVQAFLAECDTVEQNICQETERLQSTNFALAE
notes: Untagged Bag-1L as the soluble partner in the test for dimerization; also called human Bag-1L; p50
- binding result: no binding
